Test results from US20220389118A1 (Chugai, published 2022).
Where two headings read alike, the source gives them in different places. One block for each binder: values may come before it.

Columns and labels:
[1] = molecular target: T1, soluble human IL-6 receptor (human, UniProt P08887 20-357); test: SPR (Reference Example 6)
T1 construct: also called hsIL-6R
T1 sequence: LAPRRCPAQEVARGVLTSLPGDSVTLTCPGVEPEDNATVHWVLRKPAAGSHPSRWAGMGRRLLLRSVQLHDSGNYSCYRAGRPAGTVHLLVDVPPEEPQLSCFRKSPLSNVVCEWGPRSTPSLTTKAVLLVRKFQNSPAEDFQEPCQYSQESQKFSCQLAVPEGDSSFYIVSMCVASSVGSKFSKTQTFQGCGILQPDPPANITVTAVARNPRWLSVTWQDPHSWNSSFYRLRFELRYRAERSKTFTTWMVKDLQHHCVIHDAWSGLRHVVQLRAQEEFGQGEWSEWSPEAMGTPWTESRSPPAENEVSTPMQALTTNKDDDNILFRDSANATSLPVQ
Description: The kinetic analysis of the antigen-antibody reactions was conducted in solutions with 2 mM and 3 μM calcium ion concentrations, set as high and low calcium ion concentration conditions, respectively. The antibody of interest was captured on Sensor chip CM4 (GE Healthcare) on which an appropriate amount of Protein A (Invitrogen) was immobilized by an amine coupling method. Two buffers [10 mM ACES, 150 mM NaCl, 0.05% (w/v) Tween 20, and 2 mM CaCl₂) (pH 7.4) or 10 mM ACES, 150 mM NaCl, 0.05% (w/v) Tween 20, and 3 μmol/L CaCl₂ (pH 7.4)] were used as running buffers. These buffers were used for diluting human IL-6 receptor. All the measurements were conducted at 37° C.
Subsequently, the sensor chip was regenerated by injecting 10 mM glycine-HCl (pH 1.5) at a flow rate 30 μL/min for 30 seconds. Dissociation constants (KD) (M) were calculated from the sensorgrams obtained in the measurement, using a steady-state affinity model. Each parameter was calculated using the Biacore T100 Evaluation Software (GE Healthcare).

[2] = molecular target: T2, human FcγRIIb extracellular domain with C-terminal His tag (human, UniProt P31994 43-217); test: SPR (Biacore), antibody captured, FcγR analyte
T2 construct: extracellular domain; not shown: His tag at the C terminus
T2 sequence (looked up): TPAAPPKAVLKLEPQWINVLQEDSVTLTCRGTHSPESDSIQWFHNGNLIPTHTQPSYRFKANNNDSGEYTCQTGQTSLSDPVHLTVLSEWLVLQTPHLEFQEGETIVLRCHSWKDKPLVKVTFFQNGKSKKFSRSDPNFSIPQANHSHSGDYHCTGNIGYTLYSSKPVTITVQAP

[3] = molecular target: T2, human FcγRIIb extracellular domain with …; test: SPR (Biacore), antibody captured, FcγR analyte; remark: listed apart in the source
[4] = molecular target: T3, human FcγRIa extracellular domain with C-terminal His tag (human, UniProt P12314 16-292); test: SPR (Biacore), antibody captured, FcγR analyte
T3 construct: not shown: His tag at the C terminus

[5] = molecular target: T4, human FcγRIIa type H (H131) extracellular domain with C-terminal His tag (human, UniProt P12318 34-217); test: SPR (Biacore), antibody captured, FcγR analyte
T4 construct: extracellular domain; also called FcγRIIaH; not shown: His tag at the C terminus
T4 sequence (looked up): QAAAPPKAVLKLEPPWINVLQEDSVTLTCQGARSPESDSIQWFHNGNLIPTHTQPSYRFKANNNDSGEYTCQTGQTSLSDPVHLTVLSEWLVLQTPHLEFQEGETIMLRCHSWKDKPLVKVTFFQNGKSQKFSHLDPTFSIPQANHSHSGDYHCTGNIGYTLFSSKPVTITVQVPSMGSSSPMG

T3 sequence (P12314 16-292): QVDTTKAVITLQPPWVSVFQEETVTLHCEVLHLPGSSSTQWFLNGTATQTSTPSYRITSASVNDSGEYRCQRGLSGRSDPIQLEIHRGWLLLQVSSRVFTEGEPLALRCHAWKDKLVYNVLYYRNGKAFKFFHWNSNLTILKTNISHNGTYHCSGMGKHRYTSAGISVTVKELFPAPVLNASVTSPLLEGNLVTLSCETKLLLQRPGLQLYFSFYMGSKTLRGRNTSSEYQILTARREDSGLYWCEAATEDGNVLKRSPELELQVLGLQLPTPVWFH

B1: FH4-IgG1 (antibody, V domains shown)
VH: QVQLVQSGAEVKKPGSSVKVSCKASGGTFSSYAISWVRQAPGQGLEWMGGIIPIFGTANYAQKFQGRVTITADESTSTAYMELSSLRSEDTAVYYCARERDYYDSSGYYDAFDIWGQGTMVTVSS
VL: ETTVTQSPSFLSASVGDRVTITCITTTDIDDDMNWFQQEPGKAPKLLISEGNILRPGVPSRFSSSGYGTDFTLTISKLQPEDFATYYCLQSDNLPFTFGQGTKLEIKR
Ca-dependent binding ability [1]: ≥ 100 fold

B2: 6RL#9-IgG1 (antibody, V domains shown)
VH: QVQLVQSGAEVKKPGASVKVSCKASGYTFTSYYMHWVRQAPGQGLEWMGIINPSGGSTSYAQKFQGRVTMTRDTSTSTVYMELSSLRSEDTAVYYCARDDPGGGEYYFDYWGQGTLVTVSS
VL: QSVLTQPPSVSGAPGQRVTISCTGSRSNMGAGYDVHWYQLLPGAAPKLLISHNTHRPSGVPDRFSGSKSGASASLAITGLQAEDEADYYCQSHDSSLSAVVFGGGTKLTVLS
notes: also called antibody 6RL#9
Ca-dependent binding ability [1]: ≥ 100 fold

B3: IL6R-BP350/IL6R-L (antibody, human IgG1, kappa)
heavy: QVQLQESGPGLVKPSETLSLTCAVSGHSISHDHAWSWVRQPPGEGLEWIGFISYSGITNYNPSLQGRVTISRDNSKNTLYLQMNSLRAEDTAVYYCARSLARTTAMDYWGEGTLVTVSSASTKGPSVFPLAPSSKSTSGGTAALGCLVKDYFPEPVTVSWNSGALTSGVHTFPAVLQSSGLYSLSSVVTVPSSSLGTQTYICNVNHKPSNTKVDKKVEPKSCDKTHTCPPCPAPDLLGDDSVFLFPPKPKDTLMISRTPEVTCVVVDVEEEDGEVKFNWYVDGVEVHNAKTKPREEQYNSTYRVVSVLTVLHQDWLNGKEYKCKVSNKALPAPIEKTISKAKGQPREPQVYTLPPSRDELTKNQVSLTCLVKGFYPSDIAVEWESNGQPENNYKTTPPVLDSDGSFFLYSKLTVDKSRWQQGNVFSCSVMHEALHNHYTQESLSLSP
light: not shown
notes: S267E introduced into IL6R-BP267; copies: 2 + 2
Kd [2]: 100 nM

B7: IL6R-BP447/IL6R-L (antibody, human IgG1, kappa)
heavy: QVQLQESGPGLVKPSETLSLTCAVSGHSISHDHAWSWVRQPPGEGLEWIGFISYSGITNYNPSLQGRVTISRDNSKNTLYLQMNSLRAEDTAVYYCARSLARTTAMDYWGEGTLVTVSSASTKGPSVFPLAPSSKSTSGGTAALGCLVKDYFPEPVTVSWNSGALTSGVHTFPAVLQSSGLYSLSSVVTVPSSSLGTQTYICNVNHKPSNTKVDKKVEPKSCDKTHTCPPCPAPDLLGDDSVFLFPPKPKDTLMISRTPEVTCVVVDVAEEDGEVKFNWYVDGVEVHNAKTKPREEQYNSTYRVVSVLTVLHQDWLNGKEYKCKVSNKALPRPIEKTISKAKGQPREPQVYTLPPSRDELTKNQVSLTCLVKGFYPSDIAVEWESNGQPENNYKTTPAVLDSDGSFFLYSKLTVDKSRWQQGNVFSCSVMHEALHNHYTQESLSLSP
light: not shown
notes: P396A introduced into IL6R-BP423; copies: 2 + 2
Kd [4]: 0.9 nM
Kd [5]: 2000 nM

B8: IL6R-BP367/IL6R-L (antibody, human IgG1, kappa)
heavy: QVQLQESGPGLVKPSETLSLTCAVSGHSISHDHAWSWVRQPPGEGLEWIGFISYSGITNYNPSLQGRVTISRDNSKNTLYLQMNSLRAEDTAVYYCARSLARTTAMDYWGEGTLVTVSSASTKGPSVFPLAPSSKSTSGGTAALGCLVKDYFPEPVTVSWNSGALTSGVHTFPAVLQSSGLYSLSSVVTVPSSSLGTQTYICNVNHKPSNTKVDKKVEPKSCDKTHTCPPCPAPDLLGDDSVFLFPPKPKDTLMISRTPEVTCVVVDVSEDDGEVKFNWYVDGVEVHNAKTKPREEQYNSTYRVVSVLTVLHQDWLNGKEYKCKVSNKALPAPIEKTISKAKGQPREPQVYTLPPSRDELTKNQVSLTCLVKGFYPSDIAVEWESNGQPENNYKTTPPVLDSDGSFFLYSKLTVDKSRWQQGNVFSCSVMHEALHNHYTQESLSLSP
light: not shown
notes: E269D introduced into IL6R-BP267; copies: 2 + 2
Kd [2]: 100 nM

Further lines, results first:

Kd [3]: 4 nM
B4: IL6R-BP464/IL6R-L (antibody, human IgG1, kappa)
heavy: QVQLQESGPGLVKPSETLSLTCAVSGHSISHDHAWSWVRQPPGEGLEWIGFISYSGITNYNPSLQGRVTISRDNSKNTLYLQMNSLRAEDTAVYYCARSLARTTAMDYWGEGTLVTVSSASTKGPSVFPLAPSSKSTSGGTAALGCLVKDYFPEPVTVSWNSGALTSGVHTFPAVLQSSGLYSLSSVVTVPSSSLGTQTYICNVNHKPSNTKVDKKVEPKSCDKTHTCPPCPAPDLLGDDSVFLFPPKPKDTLMISRTPEVTCVVVDVAEEDGEVKFNWYVDGVEVHNAKTKPREEQYNSTYRVVSVLTVLHQDWLNGKEYKCKVSNKALPRPIEKTISKAKGQPREPQVYTLPPSRDELTKNQVSLTCLVKGFYPSDIAVEWESNGQPENNYKTTPYVLDSDGSFFLYSKLTVDKSRWQQGNVFSCSVMHEALHNHYTQESLSLSP
light: not shown
notes: P396Y introduced into IL6R-BP423; copies: 2 + 2

Kd [4]: 0.6 nM
Kd [5]: 2000 nM
B5: IL6R-BP456/IL6R-L (antibody, human IgG1, kappa)
heavy: QVQLQESGPGLVKPSETLSLTCAVSGHSISHDHAWSWVRQPPGEGLEWIGFISYSGITNYNPSLQGRVTISRDNSKNTLYLQMNSLRAEDTAVYYCARSLARTTAMDYWGEGTLVTVSSASTKGPSVFPLAPSSKSTSGGTAALGCLVKDYFPEPVTVSWNSGALTSGVHTFPAVLQSSGLYSLSSVVTVPSSSLGTQTYICNVNHKPSNTKVDKKVEPKSCDKTHTCPPCPAPDLLGDDSVFLFPPKPKDTLMISRTPEVTCVVVDVAEEDGEVKFNWYVDGVEVHNAKTKPREEQYNSTYRVVSVLTVLHQDWLNGKEYKCKVSNKALPRPIEKTISKAKGQPREPQVYTLPPSRDELTKNQVSLTCLVKGFYPSDIAVEWESNGQPENNYKTTPMVLDSDGSFFLYSKLTVDKSRWQQGNVFSCSVMHEALHNHYTQESLSLSP
light: not shown
notes: P396M introduced into IL6R-BP423; copies: 2 + 2

Kd [5]: 1600 nM
Kd [3]: 4 nM
B6: IL6R-BP455/IL6R-L (antibody, human IgG1, kappa)
heavy: QVQLQESGPGLVKPSETLSLTCAVSGHSISHDHAWSWVRQPPGEGLEWIGFISYSGITNYNPSLQGRVTISRDNSKNTLYLQMNSLRAEDTAVYYCARSLARTTAMDYWGEGTLVTVSSASTKGPSVFPLAPSSKSTSGGTAALGCLVKDYFPEPVTVSWNSGALTSGVHTFPAVLQSSGLYSLSSVVTVPSSSLGTQTYICNVNHKPSNTKVDKKVEPKSCDKTHTCPPCPAPDLLGDDSVFLFPPKPKDTLMISRTPEVTCVVVDVAEEDGEVKFNWYVDGVEVHNAKTKPREEQYNSTYRVVSVLTVLHQDWLNGKEYKCKVSNKALPRPIEKTISKAKGQPREPQVYTLPPSRDELTKNQVSLTCLVKGFYPSDIAVEWESNGQPENNYKTTPLVLDSDGSFFLYSKLTVDKSRWQQGNVFSCSVMHEALHNHYTQESLSLSP
light: not shown
notes: P396L introduced into IL6R-BP423; copies: 2 + 2
